This is an account of results in patent US20090324700A1, “METHODS AND COMPOSITIONS FOR THE INHIBITION OF CATHEPSINS” (priority 2003, published 2009).

Values joined by “and” are separate entries in the source; they are usually repeats but may differ in a detail not shown here. Equal entries are not always repeated.

One test relates to LCMV-specific CD8 cells. As to conditions: mouse, in vivo.
In test [1] the test system is anti-LCMV memory CD8 cells. Conditions: mouse, in vivo.
The subject of a further test is NIH3T3 cells. The test is described as follows: TNF-α death assays, NIH3T3 cells. Format: cell-based. As to conditions: TNF-α + Z-VAD.fmk 50 μM; FIG. 9B, 10B. The method, then:
TNF-α death assays. NIH3T3 cells were transduced with MIGR1 retrovirus (Zhang and Ren, 1998) encoding either GFP alone, or Spi2A in the forward (sense) or reverse (antisense) orientation and stable clones generated, as described previously (Liu et al., 2003). Cells were treated with TNF-α (R&D) and after 16 h the number of live GFP-positive adherent cells were counted by flow cytometry (Liu et al., 2003). Live cells were defined as those that excluded propidium iodide (PI-negative) and had the appropriate size, as defined by forward and side light scatter characteristics. Caspase activity was inhibited by pre-treatment of cells or extracts for 1 h with Z-VAD.fmk (ICN Biomedicals Inc; 50 μM). […] In anti-sense experiments the level of Spi2A mRNA was quantitated by real-time PCR using primers and probes specific for Spi2A (Inglis et al., 1991) and cyclofilin A control mRNA (Medhurst et al., 2000), 4 h after treatment with Z-VAD.fmk ([…]) and TNF-α (10 ng/ml), as described previously (Liu et al., 2003).

Another test has as its target T1, human cathepsin L (Homo sapiens, UniProt P07711).
T1 construct: purchased Calbiochem or Athens Research and Technology
The test is described as follows: Protease specificity of Spi2A: cathepsin L. It counts as biochemical. Conditions: protease 20 nM, Spi2A 200 nM, 1 h at 37° C; FIG. 6B. The method, then:
(§1) Protease specificity of Spi2A. RelA^−/− MEFs were transduced with retrovirus encoding Spi2A with a C-terminal 3×FLAG epitope tag and Spi2A-3×FLAG purified using a method described previously (Cooley et al., 1998). Briefly, cells (3×10^9) were lysed and Spi2A-3×FLAG (75 μg) purified by batch Q-Fast Flow ion-exchange chromatography (Pharmacia Biotech) after elution at 160-220 mM NaCl followed by anti-FLAG antibody columns, performed according to manufacturer's instructions (Sigma-Aldrich). Spi2A-3×FLAG was dialysed into PBS and stored as aliquots at −80° C. until needed.
(§2) Proteases were purchases from the manufacturers (Calbiochem or Athens Research and Technology) except granzymes A and B which were purified as described (Hanna et al., 1993) and cathespin V and K, which were purified as described (Bromme et al., 1999; Linnevers et al., 1997). Proteases (20 nM) were incubated in the appropriate assay buffer with Spi2A at 200 nM (at least 10-fold excess of inhibitor to maintain pseudo-first order conditions) for 1 h at 37° C. Control samples included only the enzyme, without the inhibitor. At the end of 1 h protease activity was assayed. […] Substrate hydrolysis was measured in a fluorescence microtiter plate reader (Spectramax Gemini XS, Molecular Devices). Percentage inhibition was calculated from the residual enzyme activity compared to no Spi2A controls. […]

The target in a further test is T2, human cathepsin H (Homo sapiens, UniProt P09668).
T2 construct: purchased Calbiochem or Athens Research and Technology
T2 sequence (P09668 98-335): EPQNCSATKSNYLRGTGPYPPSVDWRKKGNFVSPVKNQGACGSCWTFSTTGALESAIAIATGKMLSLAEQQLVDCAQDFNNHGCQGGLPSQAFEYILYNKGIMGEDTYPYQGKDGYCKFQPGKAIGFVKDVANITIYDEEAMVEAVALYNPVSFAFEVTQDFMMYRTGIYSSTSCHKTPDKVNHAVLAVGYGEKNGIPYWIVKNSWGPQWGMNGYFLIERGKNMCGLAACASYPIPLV
Put plainly: Protease specificity of Spi2A: cathepsin H. Format: biochemical. Conditions: protease 20 nM, Spi2A 200 nM, 1 h at 37° C; FIG. 6B. As to the method: as §1, §2

T1 sequence (P07711 114-333): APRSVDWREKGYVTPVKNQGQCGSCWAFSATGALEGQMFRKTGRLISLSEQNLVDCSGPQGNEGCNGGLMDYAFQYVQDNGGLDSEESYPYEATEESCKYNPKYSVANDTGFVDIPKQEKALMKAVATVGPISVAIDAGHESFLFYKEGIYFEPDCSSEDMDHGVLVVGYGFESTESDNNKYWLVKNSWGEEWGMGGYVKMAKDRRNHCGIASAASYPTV

B1: Spi2A: murine Spi2A polypeptide, SEQ ID NO:2; purified as C-terminal 3×FLAG protein or expressed from MIGR1 retrovirus in cells and bone-marrow chimeras (protein, listed as Mus musculus)
chain: MAGVSPAVFGCPDVTLGRNTAVREVQENVTSVDSLTLVSSNTDFAFSLYRKLVLKNPDENVVFSPFSICTALALLSLGAKSNTLKEILEGLKFNLTETPEPDIHQGFRYLLDLLSQPGNQVQISTGSALFIEKHLQILAEFKEKARALYQAEAFTADFQQPLKATKLINDYVSNHTQGKIKELISGLKESTLMVLVNYIYFKGKWKNPFDPNDTFKSEFYLDEKRSVIVSMMKTGYLTTPYFRDEELSCTVVELKYTGNASAMFILPDQGRMQQVEASLQPETLRKWKNSLKPRMIHELRLPKFSISTDYSLEHILPELGIREVFSTHADLSAITGTKDLRVSQVVHKAVLDVAEKGTEAAAATGMAGVGCCAVFDFLEIFFNRPFLMIISDTKAHIALFMAKVTNPERSTNFPNGEGASSQRLESKRLCFGDPLCLIGQ
modifications: C-terminal 3xFLAG tag
notes: purified as C-terminal 3×FLAG protein or expressed from MIGR1 retrovirus in cells and bone-marrow chimeras
Turning to B1, in the test with LCMV-specific CD8 cells, the “Anti-LCMV CD8 cells as a percentage of the total GFP^+ CD8^+ cell population in PBLs” value is “significantly elevated”, the “Level of anti-LCMV CD8 cells during the contraction phase” value is “considerable increase”, the “Level of anti-LCMV CD8 cells during the initial expansion phase” value was “did not increase” and the “Level of anti-LCMV CD8 cells during the memory phase” value is listed as “elevated level”. Further, in the test on LCMV-specific CD8 cells, the “Residual level of anti-LCMV CD8 cells (level 56 days after infection as percentage of the maximum on day 14)” value was “significantly (p<0.001) higher”, the “Residual level of anti-LCMV CD8 cells (level after 98 days as percentage of the maximum after 14 days)” value is listed as “significantly higher” and the “Time for which the elevated memory-phase level was stable” value is on record as “at least 14 weeks”. In addition, in test [1], the “Number of anti-LCMV CD8 cells per spleen GFP^−” value was 5.07 ± 0.68 (n = 3) ×10^−5 and 2.79 ± 0.12 (n = 6) ×10^−5; the “Percentage and absolute number of anti-LCMV memory CD8 cells (IFN-γ^+ CD8^+) in the spleen” value is reported as “increased”. In addition, in the test with NIH3T3 cells, the “Survival against TNF-α in the absence of caspase activity, transduced clones vs GFP” value is “markedly improved survival”. In addition, in the test with human cathepsin L, the “Inhibition of protease by Spi2A (percentage inhibition)” value was “extended to all of the lysosomal, papain-like proteases that were examined”. Besides, in the test with human cathepsin H, the “Inhibition of protease by Spi2A (percentage inhibition)” value was “extended to all of the lysosomal, papain-like proteases that were examined”.
